Measured values taken from patent US20230322953A1 (HARBOUR BIOMED SHANGHAI, published 2023).

B1: Anti-4-1BB heavy-chain antibody 1016P0010B11, hIgG1 (antibody, V domains shown)
VH: EVQLLESGGGLVQLGGSLRLSCAASGFTFSRYAMTWVRQAPEKGLEWVSSISGSGDDTYYGDSVKGRFTISRDNSQNTVYLQMNSLRAEDTAVYFCAKEKAGTTGDYYYNVDVWGQGTTVTVSS
notes: HCAb (heavy chain dimer, no light chain), hIgG1 Fc; also called PR001758
B2: Anti-4-1BB heavy-chain antibody 1016P0020G4, hIgG1 (antibody, V domains shown)
VH: EVQLLESGGGLVQPGGSLRLSCAASGFIFSNFAMTWVRQPPEKGLKWVSSINGSGFNTYYTDSVKGRFTISRDNSRNTLYLQMNRLTAEDTAVYFCAKEGSSETDDHYYNVDVWGQGTTVTVSS
notes: HCAb (heavy chain dimer, no light chain), hIgG1 Fc; also called PR001836
B3: Anti-4-1BB heavy-chain antibody 1016P0037D2, hIgG1 (antibody, V domains shown)
VH: EVQLVESGGGLVQPGGSLRLSCAASGFTFSSYWMHWVRQAPGKGLVWVSRINSDGSSTSYADSVQGRFTISRDNAKNTLYLQMNSLRAEDTAVYYCVRKGSSSYYHYSIEDDWGQGTLVTVSS
notes: HCAb (heavy chain dimer, no light chain), hIgG1 Fc; also called PR001840
B4: Anti-4-1BB heavy-chain antibody PR001838_G53A, hIgG1 (antibody, V domains shown)
VH: EVQLLESGGGLVQPGGSLRLSCAASGFTFSNYAMSWFRQPPETGLKWVSSIDASGGDTYYADSVKGRFTISRDNSKNTLYLQMNSLRAEDTAVYYCAKEGSHGTDDSHYDVDVWGQGTTVTVSS
notes: HCAb (heavy chain dimer, no light chain), hIgG1 Fc; also called PR004469
B5: Anti-4-1BB heavy-chain antibody 1016P0042C5, hIgG1 (antibody, V domains shown)
VH: EVQLLESGGGLVQPGGSLRLSCAASGFTFSNYAMTWVRQPPGKGLEWVSSISGSGGSTYYADSVKGRFTISRDNSKNTLYLQMNSLRAEDTAVYYCAKEGTGTTSDYYYNVDVWGQGTTVTVSS
notes: HCAb (heavy chain dimer, no light chain), hIgG1 Fc; also called PR001771
B6: PR002892 (bispecific antibody, human IgG1, lambda, L234A L235A)
light: QAVVTQEPSLTVSPGGTVTLTCRSSTGAVTTSNYANWVQQKPGQAPRGLIGGTNKRAPWTPARFSGSLLGDKAALTLLGAQPEDEAEYFCALWYSNLWVFGGGTKLTVLGQPKAAPSVTLFPPSSEELQANKATLVCLISDFYPGAVTVAWKADSSPVKAGVETTTPSKQSNNKYAASSYLSLTPEQWKSHRSYSCQVTHEGSTVEKTVAPTECS
heavy: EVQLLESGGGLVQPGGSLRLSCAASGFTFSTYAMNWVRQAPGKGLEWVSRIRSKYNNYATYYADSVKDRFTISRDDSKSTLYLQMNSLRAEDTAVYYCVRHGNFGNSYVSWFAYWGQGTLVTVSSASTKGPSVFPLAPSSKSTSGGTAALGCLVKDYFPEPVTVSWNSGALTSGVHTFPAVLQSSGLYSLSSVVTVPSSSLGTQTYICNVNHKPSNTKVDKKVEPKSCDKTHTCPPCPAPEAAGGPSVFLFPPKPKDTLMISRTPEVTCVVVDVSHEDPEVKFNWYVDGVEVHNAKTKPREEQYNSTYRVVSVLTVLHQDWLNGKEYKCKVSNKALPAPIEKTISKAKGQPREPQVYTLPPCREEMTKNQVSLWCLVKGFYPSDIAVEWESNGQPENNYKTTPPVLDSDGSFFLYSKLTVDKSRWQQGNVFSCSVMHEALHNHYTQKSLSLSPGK
chain: EVQLVETGGGLIQPGGSLRLSCAASGFTVSDNYMTWVRQAPGKGLEWVSVIFSGGNTYYADSVKGRFTISRDNAKNTLYLQMNSLRAEDTALYYCARRNYDDTRGTDVFDIWGQGTMVTVSSGGGGSEVQLVETGGGLIQPGGSLRLSCAASGFTVSDNYMTWVRQAPGKGLEWVSVIFSGGNTYYADSVKGRFTISRDNAKNTLYLQMNSLRAEDTALYYCARRNYDDTRGTDVFDIWGQGTMVTVSSASEPKSSDKTHTCPPCPAPEAAGGPSVFLFPPKPKDTLMISRTPEVTCVVVDVSHEDPEVKFNWYVDGVEVHNAKTKPREEQYNSTYRVVSVLTVLHQDWLNGKEYKCKVSNKALPAPIEKTISKAKGQPREPQVCTLPPSREEMTKNQVSLSCAVKGFYPSDIAVEWESNGQPENNYKTTPPVLDSDGSFFLVSKLTVDKSRWQQGNVFSCSVMHEALHNHYTQKSLSLSPGK
B7: PR002313 (bispecific antibody, human IgG1, lambda, L234A L235A)
light: B6 light
heavy: EVQLLESGGGLVQPGGSLRLSCAASGFTFSTYAMNWVRQAPGKGLEWVSRIRSKYNNYATYYADSVKDRFTISRDDSKSTLYLQMNSLRAEDTAVYYCVRHGNFGNSYVSWFAYWGQGTLVTVSSASTKGPSVFPLAPSSKSTSGGTAALGCLVKDYFPEPVTVSWNSGALTSGVHTFPAVLQSSGLYSLSSVVTVPSSSLGTQTYICNVNHKPSNTKVDKKVEPKSCDKTHTCPPCPAPEAAGGPSVFLFPPKPKDTLMISRTPEVTCVVVDVSHEDPEVKFNWYVDGVEVHNAKTKPREEQYNSTYRVVSVLTVLHQDWLNGKEYKCKVSNKALGAPIEKTISKAKGQPREPQVYTLPPCREEMTKNQVSLWCLVKGFYPSDIAVEWESNGQPENNYKTTPPVLDSDGSFFLYSKLTVDKSRWQQGNVFSCSVMHEALHNHYTQKSLSLSPGK
chain: EVQLLESGGGLVQPGGSLRLSCAASGFTFSSYAMIWVRQAPGKGLEWVSGISESGGSTYYADSVKGRFTISRDNSKNTLYLQMNSLRAEDTAVYFCVKDLDDILTGYYKDYWGQGTLVTVSSRTGGGGSGGGGSGGGGSKLEVQLVETGGGLIQPGGSLRLSCAASGFPVSSNYMSWVRQAPGKGLEWVSVIFSGGRTYYADSVKGRFTISRDNSKNTLYLQMNSLRAEDTAVYYCARRNWIDGRDAFDIWGQGTMVTVSSASEPKSSDKTHTCPPCPAPEAAGGPSVFLFPPKPKDTLMISRTPEVTCVVVDVSHEDPEVKFNWYVDGVEVHNAKTKPREEQYNSTYRVVSVLTVLHQDWLNGKEYKCKVSNKALGAPIEKTISKAKGQPREPQVCTLPPSREEMTKNQVSLSCAVKGFYPSDIAVEWESNGQPENNYKTTPPVLDSDGSFFLVSKLTVDKSRWQQGNVFSCSVMHEALHNHYTQKSLSLSPGK
B8: PR002898 (bispecific antibody, human IgG1, lambda, L234A L235A)
light: B6 light
heavy: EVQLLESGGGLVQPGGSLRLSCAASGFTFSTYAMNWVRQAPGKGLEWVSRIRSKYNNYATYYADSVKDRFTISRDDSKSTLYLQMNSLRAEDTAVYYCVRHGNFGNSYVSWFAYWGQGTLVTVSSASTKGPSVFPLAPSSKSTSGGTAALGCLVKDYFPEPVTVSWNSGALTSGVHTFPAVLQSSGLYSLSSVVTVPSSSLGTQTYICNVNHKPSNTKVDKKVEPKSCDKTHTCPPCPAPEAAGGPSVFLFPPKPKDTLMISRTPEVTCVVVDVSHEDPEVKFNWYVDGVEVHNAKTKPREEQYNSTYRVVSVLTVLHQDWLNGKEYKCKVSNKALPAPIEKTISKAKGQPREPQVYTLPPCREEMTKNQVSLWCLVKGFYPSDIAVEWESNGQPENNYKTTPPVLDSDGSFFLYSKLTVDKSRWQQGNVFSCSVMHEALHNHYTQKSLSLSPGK
chain: EVQLVETGGGLIQPGGSLRLSCAASGFTVSDNYMTWVRQAPGKGLEWVSVIFSGGNTYYADSVKGRFTISRDNAKNTLYLQMNSLRAEDTALYYCARRNYDDTRGTDVFDIWGQGTMVTVSSGSEVQLVETGGGLIQPGGSLRLSCAASGFTVSDNYMTWVRQAPGKGLEWVSVIFSGGNTYYADSVKGRFTISRDNAKNTLYLQMNSLRAEDTALYYCARRNYDDTRGTDVFDIWGQGTMVTVSSASEPKSSDKTHTCPPCPAPEAAGGPSVFLFPPKPKDTLMISRTPEVTCVVVDVSHEDPEVKFNWYVDGVEVHNAKTKPREEQYNSTYRVVSVLTVLHQDWLNGKEYKCKVSNKALPAPIEKTISKAKGQPREPQVCTLPPSREEMTKNQVSLSCAVKGFYPSDIAVEWESNGQPENNYKTTPPVLDSDGSFFLVSKLTVDKSRWQQGNVFSCSVMHEALHNHYTQKSLSLSPGK
B9: PR002326 (bispecific antibody, human IgG1, lambda, L234A L235A)
light: B6 light
heavy: B7 heavy
chain: EVQLVETGGGLIQPGGSLRLSCAASGFTVSSNYMTWVRQAPGKGLEWVSVIFSGGSTYYADSVKGRFTISRDNSKNTLYLQMNSLRAEDTAVYYCARRIAVAGHDVFDIWGQGTMVTVSSRTGGGGSGGGGSGGGGSKLEVQLVETGGGLIQPGGSLRLSCAASGFTVSDNYMTWVRQAPGKGLEWVSVIFSGGNTYYADSVKGRFTISRDNAKNTLYLQMNSLRAEDTALYYCARRNYDDTRGTDVFDIWGQGTMVTVSSASEPKSSDKTHTCPPCPAPEAAGGPSVFLFPPKPKDTLMISRTPEVTCVVVDVSHEDPEVKFNWYVDGVEVHNAKTKPREEQYNSTYRVVSVLTVLHQDWLNGKEYKCKVSNKALGAPIEKTISKAKGQPREPQVCTLPPSREEMTKNQVSLSCAVKGFYPSDIAVEWESNGQPENNYKTTPPVLDSDGSFFLVSKLTVDKSRWQQGNVFSCSVMHEALHNHYTQKSLSLSPGK
B10: PR002328 (bispecific antibody, human IgG1, lambda, L234A L235A)
light: B6 light
heavy: B7 heavy
chain: EVQLVETGGGLIQPGGSLRLSCAASGFTVSSNYMTWVRQAPGKGLEWVSVIFSGGSTYYADSVKGRFTISRDNSKNTLYLQMNSLRAEDTAVYYCARRIAVAGHDVFDIWGQGTMVTVSSRTGGGGSGGGGSGGGGSGGGGSGGGGSKLEVQLVETGGGLIQPGGSLRLSCAASGFTVSDNYMTWVRQAPGKGLEWVSVIFSGGNTYYADSVKGRFTISRDNAKNTLYLQMNSLRAEDTALYYCARRNYDDTRGTDVFDIWGQGTMVTVSSASEPKSSDKTHTCPPCPAPEAAGGPSVFLFPPKPKDTLMISRTPEVTCVVVDVSHEDPEVKFNWYVDGVEVHNAKTKPREEQYNSTYRVVSVLTVLHQDWLNGKEYKCKVSNKALGAPIEKTISKAKGQPREPQVCTLPPSREEMTKNQVSLSCAVKGFYPSDIAVEWESNGQPENNYKTTPPVLDSDGSFFLVSKLTVDKSRWQQGNVFSCSVMHEALHNHYTQKSLSLSPGK
B11: PR002901 (bispecific antibody, human IgG1, lambda, L234A L235A)
light: B6 light
heavy: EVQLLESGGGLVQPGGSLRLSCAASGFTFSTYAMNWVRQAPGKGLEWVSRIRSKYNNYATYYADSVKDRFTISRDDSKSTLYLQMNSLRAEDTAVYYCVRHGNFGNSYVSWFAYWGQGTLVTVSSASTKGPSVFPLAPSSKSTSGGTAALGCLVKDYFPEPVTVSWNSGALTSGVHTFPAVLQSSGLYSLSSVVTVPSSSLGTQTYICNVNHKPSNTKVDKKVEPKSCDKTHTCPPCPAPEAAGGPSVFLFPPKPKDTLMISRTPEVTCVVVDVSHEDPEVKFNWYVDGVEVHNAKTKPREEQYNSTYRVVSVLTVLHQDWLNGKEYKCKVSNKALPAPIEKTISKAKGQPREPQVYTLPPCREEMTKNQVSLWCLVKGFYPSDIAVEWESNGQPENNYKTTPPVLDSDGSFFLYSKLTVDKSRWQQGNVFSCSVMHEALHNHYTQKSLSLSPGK
chain: EVQLVETGGGLIQPGGSLRLSCAASGFTVSDNYMTWVRQAPGKGLEWVSVIFSGGNTYYADSVKGRFTISRDNAKNTLYLQMNSLRAEDTALYYCARRNYDDTRGTDVFDIWGQGTMVTVSSGSGSEVQLVETGGGLIQPGGSLRLSCAASGFTVSDNYMTWVRQAPGKGLEWVSVIFSGGNTYYADSVKGRFTISRDNAKNTLYLQMNSLRAEDTALYYCARRNYDDTRGTDVFDIWGQGTMVTVSSASEPKSSDKTHTCPPCPAPEAAGGPSVFLFPPKPKDTLMISRTPEVTCVVVDVSHEDPEVKFNWYVDGVEVHNAKTKPREEQYNSTYRVVSVLTVLHQDWLNGKEYKCKVSNKALPAPIEKTISKAKGQPREPQVCTLPPSREEMTKNQVSLSCAVKGFYPSDIAVEWESNGQPENNYKTTPPVLDSDGSFFLVSKLTVDKSRWQQGNVFSCSVMHEALHNHYTQKSLSLSPGK
B12: PR002956 (bispecific antibody, human IgG1, lambda, L234A L235A)
light: B6 light
heavy: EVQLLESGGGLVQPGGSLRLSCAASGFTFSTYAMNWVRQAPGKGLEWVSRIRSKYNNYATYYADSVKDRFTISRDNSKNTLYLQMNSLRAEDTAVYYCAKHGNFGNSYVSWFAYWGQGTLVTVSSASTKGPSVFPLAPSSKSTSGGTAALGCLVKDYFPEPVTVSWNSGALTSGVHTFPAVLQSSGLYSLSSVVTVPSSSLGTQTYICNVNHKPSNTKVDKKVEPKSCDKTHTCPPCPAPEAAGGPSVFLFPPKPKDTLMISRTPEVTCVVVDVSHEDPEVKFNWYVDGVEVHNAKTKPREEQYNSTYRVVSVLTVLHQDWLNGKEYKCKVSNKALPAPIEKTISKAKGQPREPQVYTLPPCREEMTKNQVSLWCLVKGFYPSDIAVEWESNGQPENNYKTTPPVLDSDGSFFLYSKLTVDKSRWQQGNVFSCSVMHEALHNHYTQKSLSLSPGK
chain: B8 chain
B13: PR002959 (bispecific antibody, human IgG1, lambda, L234A L235A)
light: B6 light
heavy: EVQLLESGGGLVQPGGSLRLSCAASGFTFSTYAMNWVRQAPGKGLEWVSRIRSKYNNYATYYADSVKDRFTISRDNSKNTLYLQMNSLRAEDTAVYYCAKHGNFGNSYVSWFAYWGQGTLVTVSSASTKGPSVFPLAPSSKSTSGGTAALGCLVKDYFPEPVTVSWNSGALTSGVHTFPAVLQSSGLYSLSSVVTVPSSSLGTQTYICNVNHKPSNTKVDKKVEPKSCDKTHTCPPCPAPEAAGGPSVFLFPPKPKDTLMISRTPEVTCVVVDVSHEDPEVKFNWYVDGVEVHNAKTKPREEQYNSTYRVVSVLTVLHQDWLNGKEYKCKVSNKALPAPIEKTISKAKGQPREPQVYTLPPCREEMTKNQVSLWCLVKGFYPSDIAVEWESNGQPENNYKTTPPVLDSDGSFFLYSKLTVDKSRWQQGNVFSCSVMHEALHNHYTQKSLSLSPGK
chain: B11 chain
B14: PR002950 (bispecific antibody, human IgG1, lambda, L234A L235A)
light: B6 light
heavy: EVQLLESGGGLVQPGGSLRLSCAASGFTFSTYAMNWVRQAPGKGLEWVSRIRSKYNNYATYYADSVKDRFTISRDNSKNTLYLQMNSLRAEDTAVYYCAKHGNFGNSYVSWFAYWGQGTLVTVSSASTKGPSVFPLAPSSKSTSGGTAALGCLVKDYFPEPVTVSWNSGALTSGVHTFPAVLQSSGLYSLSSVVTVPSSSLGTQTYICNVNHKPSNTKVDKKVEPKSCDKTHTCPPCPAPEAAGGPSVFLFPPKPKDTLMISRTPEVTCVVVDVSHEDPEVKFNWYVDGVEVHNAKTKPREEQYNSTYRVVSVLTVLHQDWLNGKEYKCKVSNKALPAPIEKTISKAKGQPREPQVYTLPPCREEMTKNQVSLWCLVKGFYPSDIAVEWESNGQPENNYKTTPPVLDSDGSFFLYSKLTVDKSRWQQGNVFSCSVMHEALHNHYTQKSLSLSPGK
chain: B6 chain

target: T1, human 4-1BB (tumor necrosis factor receptor superfamily member 9) (human, UniProt Q07011 24-255); experiment: flow cytometry (FACS) on CHO-K1/hu 4-1BB cells
T1 construct: whole, on cells; also called hu 4-1BB; CD137
T1 sequence (Q07011 24-255): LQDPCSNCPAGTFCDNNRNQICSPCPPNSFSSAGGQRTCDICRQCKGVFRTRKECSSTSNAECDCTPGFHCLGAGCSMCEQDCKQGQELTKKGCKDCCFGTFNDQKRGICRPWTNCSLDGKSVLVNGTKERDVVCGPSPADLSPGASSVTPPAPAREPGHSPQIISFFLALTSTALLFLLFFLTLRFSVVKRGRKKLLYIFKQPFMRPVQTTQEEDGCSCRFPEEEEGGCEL

Point of comparison: B4, EC50 1.29 nM. Against it:
- B1 — 6.1-fold lower, 0.212 nM
- B2 — 4.6-fold lower, 0.28 nM
- B3 — 3-fold lower, 0.43 nM
- B5 — 2.4-fold lower, 0.532 nM

Point of comparison: B1, “Maximum MFI” value 1640 MFI. Against it:
- B2 — higher, 1830 MFI
- B3 — higher, 1790 MFI
- B4 — higher, 109000 MFI
- B5 — higher, 1720 MFI

target: T2, cynomolgus monkey BCMA (cynomolgus monkey, UniProt A0A2K5UD97 1-183); experiment: FACS on HEK293T/cyno BCMA cells
T2 construct: whole, on cells; also called cyno BCMA
T2 sequence (A0A2K5UD97 entry or part of it): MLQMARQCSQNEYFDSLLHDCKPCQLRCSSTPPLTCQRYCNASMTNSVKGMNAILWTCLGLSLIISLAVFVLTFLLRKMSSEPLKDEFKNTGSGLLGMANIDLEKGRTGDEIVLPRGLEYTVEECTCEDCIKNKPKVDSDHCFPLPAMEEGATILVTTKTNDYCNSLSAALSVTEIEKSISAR

Point of comparison: B9, “Maximum MFI” value 6440. Against it:
- B6 — higher, 15000
- B7 — higher, 7610
- B8 — higher, 8190
- B10 — higher, 7810
- B11 — higher, 11000
- B12 — higher, 16200
- B13 — higher, 30600
- B14 — higher, 26600

target: T3, human BCMA (human, UniProt Q02223 1-184); experiment: FACS on HEK293T/hBCMA cells, Experiment 2
T3 construct: whole, on cells; also called hBCMA; TNFRSF17
T3 sequence (looked up): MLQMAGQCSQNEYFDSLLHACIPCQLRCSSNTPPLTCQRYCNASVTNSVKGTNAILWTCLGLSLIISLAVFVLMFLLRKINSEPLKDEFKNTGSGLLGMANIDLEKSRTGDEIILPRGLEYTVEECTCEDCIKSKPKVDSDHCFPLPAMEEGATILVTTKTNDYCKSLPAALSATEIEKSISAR

Point of comparison: B8, EC50 0.791 nM. Against it:
- B6 — within 1.5-fold, 0.767 nM
- B11 — within 1.5-fold, 0.654 nM

Point of comparison: B13, “Maximum MFI” value 23900. Against it:
- B6 — lower, 15500
- B8 — lower, 12600
- B11 — lower, 14700
- B12 — lower, 17600
- B14 — lower, 22100

target: T3, human BCMA; experiment: FACS on NCI-H929 cells

Point of comparison: B14, EC50 4.11 nM. Against it:
- B6 — within 1.5-fold, 4.27 nM
- B7 — 4.2-fold higher, 17.1 nM
- B8 — 2.1-fold lower, 1.94 nM
- B9 — within 1.5-fold, 3.54 nM
- B10 — 1.7-fold higher, 6.89 nM
- B11 — 1.8-fold lower, 2.32 nM
- B12 — within 1.5-fold, 3.95 nM
- B13 — within 1.5-fold, 4.3 nM

Point of comparison: B8, “Maximum MFI” value 3730. Against it:
- B6 — higher, 4360
- B7 — higher, 78000
- B9 — higher, 60000
- B10 — higher, 58900
- B11 — higher, 4180
- B12 — lower, 3570
- B13 — higher, 4210
- B14 — higher, 4190
